Measured values reported in article PMC8528238 (Nature, 2021).

Biological target: batCoV-SHC014 S-2P (Bat SARS-like coronavirus RsSHC014, UniProt U5WLK5, stabilised)
Assay: ELISA

B1: DH1047, cross-neutralizing RBD antibody (antibody, V domains shown)
VH: QVQLVQSGAEVKKPGASVQVSCQASANTFTNHYIHWVRQAPGQGLEWMGIIYPTGGNTIYAQGFQGRVTMTRDTSLNTIYLELSSLRSEDTAVYYCARDVRVDDSWSGYDLLSGGTYFDYWGQGTLVTVSS
VL: not shown
- binding result: binds
